Experimental data published in US20140341881.

Assays:
[1] = molecular target: T1, CFP-AYGLA-YFP-6xHis substrate (clone G5)
T1 chain: GALGGAYGLAGST

[2] = molecular target: T2, CFP-AYGYK-YFP-6xHis substrate (peptide E1)
T2 chain: GALGGAYGYKGST

[3] = molecular target: T3, CFP-EAPAK-YFP-6xHis substrate (clone G7)
T3 chain: GALGGEAPAKGST

[4] = molecular target: CFP-GGGGG-YFP
[5] = molecular target: T4, CFP-GHRIN-YFP-6xHis substrate (clone F7)
T4 chain: GALGGGHRINGST

[6] = molecular target: T5, CFP-HETLK-YFP-6xHis substrate (clone G11)
T5 chain: GALGGHETLKGST

[7] = molecular target: T6, CFP-KLKET-YFP-6xHis substrate (clone F5)
T6 chain: GALGGKLKETGST

[8] = molecular target: T7, CFP-LQRAI-YFP-6xHis substrate (peptide E8)
T7 chain: GALGGLQRAIGST

[9] = molecular target: T8, CFP-LSGGR-YFP-6xHis substrate (peptide E2)
T8 chain: GALGGLSGGRGST

[10] = molecular target: T9, CFP-LSRDN-YFP-6xHis substrate (peptide E7)
T9 chain: GALGGLSRDNGST

[11] = molecular target: T10, CFP-MQATK-YFP-6xHis substrate (clone F4)
T10 chain: GALGGMQATKGST

[12] = molecular target: T11, CFP-MQVKH-YFP-6xHis substrate (clone E6)
T11 chain: GALGGMQVKHGST

[13] = molecular target: T12, CFP-NNKLR-YFP-6xHis substrate (peptide E9)
T12 chain: GALGGNNKLRGST

[14] = molecular target: T13, CFP-NQRSS-YFP-6xHis substrate (peptide E5)
T13 chain: GALGGNQRSSGST

[15] = molecular target: T14, CFP-PDRHM-YFP-6xHis substrate (peptide F3)
T14 chain: GALGGPDRHMGST

[16] = molecular target: T15, CFP-PVHLY-YFP-6xHis substrate (clone F12)
T15 chain: GALGGPVHLYGST

[17] = molecular target: T16, CFP-QPNGY-YFP-6xHis substrate (clone F1)
T16 chain: GALGGQPNGYGST

[18] = molecular target: T17, CFP-QRLRD-YFP-6xHis substrate (peptide F11)
T17 chain: GALGGQRLRDGST

[19] = molecular target: T18, CFP-RGKTN-YFP-6xHis substrate (peptide D9)
T18 chain: GALGGRGKTNGST

[20] = molecular target: T19, CFP-RQTND-YFP-6xHis substrate (peptide C11)
T19 chain: GALGGRQTNDGST

[21] = molecular target: T20, CFP-RVDTG-YFP-6xHis substrate (clone D11)
T20 chain: GALGGRVDTGGST

[22] = molecular target: T21, CFP-RVTST-YFP-6xHis substrate (peptide E12)
T21 chain: GALGGRVTSTGST

[23] = molecular target: T22, CFP-SAVRP-YFP-6xHis substrate (clone E11)
T22 chain: GALGGSAVRPGST

[24] = molecular target: T23, CFP-SDKVY-YFP-6xHis substrate (clone C5)
T23 chain: GALGGSDKVYGST

[25] = molecular target: T24, CFP-STKGI-YFP-6xHis substrate (clone G3)
T24 chain: GALGGSTKGIGST

[26] = molecular target: T25, CFP-TSYLN-YFP-6xHis substrate (peptide D7)
T25 chain: GALGGTSYLNGST

[27] = molecular target: T26, CFP-TTDLR-YFP-6xHis substrate (clone E4)
T26 chain: GALGGTTDLRGST

[28] = molecular target: T27, CFP-TVDYA-YFP-6xHis substrate (peptide G9)
T27 chain: GALGGTVDYAGST

[29] = molecular target: T28, CFP-VGLYD-YFP-6xHis substrate (peptide F6)
T28 chain: GALGGVGLYDGST

[30] = molecular target: T29, CFP-VGSLR-YFP-6xHis substrate (peptide G1)
T29 chain: GALGGVGSLRGST

[31] = molecular target: T30, CFP-VVMKD-YFP-6xHis substrate (peptide E10)
T30 chain: GALGGVVMKDGST

[32] = molecular target: T31, CFP-YQNSS-YFP-6xHis substrate (clone C9)
T31 chain: GALGGYQNSSGST

[33] = molecular target: T32, CFP-YQSLN-YFP-6xHis substrate (peptide F10)
T32 chain: GALGGYQSLNGST

B1: human kallikrein 14 (hK14) (protein)
chain: IIGGHTCTRSSQPWQAALLAGPRRRFLCGGALLSGQWVITAAHCGRPILQVALGKHNLRRWEATQQVLRVVRQVTHPNYNSRTHDNDLMLLQLQQPARIGRAVRPIEVTQACASPGTSCRVSGWGTISSPIARYPASLQCVNINISPDEVCQKAYPRTITPGMVCAGVPQGGKDSCQGDSGGPLVCRGQLQGLVSWGMERCALPGYPGVYTNLCKYRSWIEETMRDK
kcat/Km [1]: 6000 M⁻¹ s⁻¹
Kcat/Km [2]: 24000 M⁻¹ s⁻¹
kcat/Km [2]: 24000 M⁻¹ s⁻¹
kcat/Km [3]: 8000 M⁻¹ s⁻¹
hydrolysis of fluorescent substrate [4]: is not hydrolyzed by hK14 (not shown)
kcat/Km [5]: 12000 M⁻¹ s⁻¹
kcat/Km [6]: 9000 M⁻¹ s⁻¹
kcat/Km [7]: 19000 M⁻¹ s⁻¹
Kcat/Km [8]: 367000 M⁻¹ s⁻¹
kcat/Km [8]: 367000 M⁻¹ s⁻¹
Kcat/Km [9]: 207000 M⁻¹ s⁻¹
kcat/Km [9]: 207000 M⁻¹ s⁻¹
Kcat/Km [10]: 127000 M⁻¹ s⁻¹
kcat/Km [10]: 127000 M⁻¹ s⁻¹
kcat/Km [11]: 8000 M⁻¹ s⁻¹
kcat/Km [12]: 34000 M⁻¹ s⁻¹
Kcat/Km [13]: 74000 M⁻¹ s⁻¹
kcat/Km [13]: 74000 M⁻¹ s⁻¹
Kcat/Km [14]: 388000 M⁻¹ s⁻¹
fold selectivity of cleavage against PK [14]: 27 and 78 fold more selective for hK14 than for hK2 and PK, respectively
fold selectivity of cleavage against hK2 [14]: 27 and 78 fold more selective for hK14 than for hK2 and PK, respectively
kcat/Km [14]: 388000 M⁻¹ s⁻¹
Kcat/Km [15]: 243000 M⁻¹ s⁻¹
kcat/Km [15]: 243000 M⁻¹ s⁻¹
kcat/Km [16]: 7000 M⁻¹ s⁻¹
kcat/Km [17]: 6000 M⁻¹ s⁻¹
Kcat/Km [18]: 307000 M⁻¹ s⁻¹
kcat/Km [18]: 307000 M⁻¹ s⁻¹
Kcat/Km [19]: 80000 M⁻¹ s⁻¹
kcat/Km [19]: 80000 M⁻¹ s⁻¹
Kcat/Km [20]: 415000 M⁻¹ s⁻¹
kcat/Km [20]: 415000 M⁻¹ s⁻¹
kcat/Km [21]: 15000 M⁻¹ s⁻¹
Kcat/Km [22]: 26000 M⁻¹ s⁻¹
kcat/Km [22]: 26000 M⁻¹ s⁻¹
kcat/Km [23]: 5000 M⁻¹ s⁻¹
kcat/Km [24]: 9000 M⁻¹ s⁻¹
kcat/Km [25]: 20000 M⁻¹ s⁻¹
Kcat/Km [26]: 9000 M⁻¹ s⁻¹
kcat/Km [26]: 9000 M⁻¹ s⁻¹
kcat/Km [27]: 27000 M⁻¹ s⁻¹
Kcat/Km [28]: 134000 M⁻¹ s⁻¹
kcat/Km [28]: 134000 M⁻¹ s⁻¹
Kcat/Km [29]: 18000 M⁻¹ s⁻¹
kcat/Km [29]: 18000 M⁻¹ s⁻¹
Kcat/Km [30]: 481000 M⁻¹ s⁻¹
kcat/Km [30]: 481000 M⁻¹ s⁻¹
Kcat/Km [31]: 15000 M⁻¹ s⁻¹
kcat/Km [31]: 15000 M⁻¹ s⁻¹
kcat/Km [32]: 6000 M⁻¹ s⁻¹
Kcat/Km [33]: 12000 M⁻¹ s⁻¹
kcat/Km [33]: 12000 M⁻¹ s⁻¹

B2: human neutrophil elastase (HNE) (protein)
chain: IVGGRRARPHAWPFMVSLQLRGGHFCGATLIAPNFVMSAAHCVANVNVRAVRVVLGAHNLSRREPTRQVFAVQRIFENGYDPVNLLNDIVILQLNGSATINANVQVAQLPAQGRRLGNGVQCLAMGWGLLGRNRGIASVLQELNVTVVTSLCRRSNVCTLVRGRQAGVCFGDSGSPLVCNGLIHGIASFVRGGCASGLYPDAFAPVAQFVNWIDSIIQ
Kcat/Km [8]: 209000 M⁻¹ s⁻¹
Kcat/Km [22]: 200000 M⁻¹ s⁻¹
Kcat/Km [26]: 90000 M⁻¹ s⁻¹
Kcat/Km [28]: 181000 M⁻¹ s⁻¹
Kcat/Km [31]: 65000 M⁻¹ s⁻¹
Kcat/Km [33]: 49000 M⁻¹ s⁻¹
